Target: the molecule itself
Assay: SEC

B1: Py-DmBLM (Drosophila Bloom's syndrome helicase homolog with an N-terminal polyoma epitope tag) (enzyme)
chain: not shown
- stoichiometry N: ~7
